Measurements reported in the supplement of paper PMC10065799, “High-throughput profiling of sequence recognition by tyrosine kinases and SH2 domains using bacterial peptide display” (eLife, 2023).

Tests used:
c-Src SH2 = assay: SH2 binding enrichment of the phosphorylated peptide, bacterial display (enrichment ratio); higher = better substrate or ligand; peptides without Tyr show the background
SHP2-C SH2 = assay: as above
Grb2 SH2 = Grb2 SH2 (UniProt P62993); assay: as above
Fes = Fes (UniProt P07332); assay: phosphorylation enrichment, bacterial display (enrichment ratio); higher = better substrate or ligand; peptides without Tyr show the background
Jak2 = Jak2 (UniProt O60674); assay: as above
AncSZ = assay: as above
FGFR3 = FGFR3 (UniProt P22607); assay: as above
EPHB1 = EPHB1 (UniProt P54762); assay: as above
Fer (mouse) = assay: as above
MERTK = MERTK (UniProt Q12866); assay: as above
EPHB2 = EPHB2 (UniProt P29323); assay: as above
c-Abl (mouse) = assay: as above
Hck = Hck (UniProt P08631); assay: as above
Fyn = Fyn (UniProt P06241); assay: as above
c-Src = assay: as above
FGFR1 = FGFR1 (UniProt P11362); assay: as above
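For SH2 binding enrichment of the phosphorylated peptide, bacterial display in this document: peptide library displayed on the E. coli surface as eCPX fusions, selected cells deep-sequenced, score is each peptide's frequency after selection divided by its frequency in the input.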
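For phosphorylation enrichment, bacterial display in this document: 11-residue human phosphosite peptides and single-mutation variants displayed on the E. coli surface, counted by deep sequencing, each peptide's frequency after selection divided by its frequency in the unselected input library; frequency after pTyr selection over input frequency; kinase dosed for 20-30% of maximal phosphorylation in three min.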

Chain of FGFR1 (P11362 whole entry, looked up, the tested form may be a part): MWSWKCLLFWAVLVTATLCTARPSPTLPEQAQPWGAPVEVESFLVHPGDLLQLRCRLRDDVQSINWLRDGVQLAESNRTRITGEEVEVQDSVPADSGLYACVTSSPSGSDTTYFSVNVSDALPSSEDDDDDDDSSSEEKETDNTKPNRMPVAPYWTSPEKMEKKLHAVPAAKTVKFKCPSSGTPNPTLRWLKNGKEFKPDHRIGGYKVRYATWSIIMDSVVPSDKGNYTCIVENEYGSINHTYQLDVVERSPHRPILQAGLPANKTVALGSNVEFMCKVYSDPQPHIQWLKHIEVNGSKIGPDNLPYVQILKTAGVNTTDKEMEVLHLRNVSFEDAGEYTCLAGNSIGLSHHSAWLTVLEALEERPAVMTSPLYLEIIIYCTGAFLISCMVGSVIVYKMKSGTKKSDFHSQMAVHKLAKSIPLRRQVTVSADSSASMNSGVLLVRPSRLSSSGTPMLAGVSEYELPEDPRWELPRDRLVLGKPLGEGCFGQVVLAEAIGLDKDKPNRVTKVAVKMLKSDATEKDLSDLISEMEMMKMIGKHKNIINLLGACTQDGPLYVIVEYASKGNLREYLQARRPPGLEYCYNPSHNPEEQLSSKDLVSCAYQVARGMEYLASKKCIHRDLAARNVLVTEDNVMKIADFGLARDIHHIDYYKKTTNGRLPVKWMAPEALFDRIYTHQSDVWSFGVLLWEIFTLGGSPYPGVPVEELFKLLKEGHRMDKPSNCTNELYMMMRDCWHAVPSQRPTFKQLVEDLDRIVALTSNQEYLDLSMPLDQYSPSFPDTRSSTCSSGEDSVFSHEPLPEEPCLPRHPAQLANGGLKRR
Chain of Hck (P08631 whole entry, looked up): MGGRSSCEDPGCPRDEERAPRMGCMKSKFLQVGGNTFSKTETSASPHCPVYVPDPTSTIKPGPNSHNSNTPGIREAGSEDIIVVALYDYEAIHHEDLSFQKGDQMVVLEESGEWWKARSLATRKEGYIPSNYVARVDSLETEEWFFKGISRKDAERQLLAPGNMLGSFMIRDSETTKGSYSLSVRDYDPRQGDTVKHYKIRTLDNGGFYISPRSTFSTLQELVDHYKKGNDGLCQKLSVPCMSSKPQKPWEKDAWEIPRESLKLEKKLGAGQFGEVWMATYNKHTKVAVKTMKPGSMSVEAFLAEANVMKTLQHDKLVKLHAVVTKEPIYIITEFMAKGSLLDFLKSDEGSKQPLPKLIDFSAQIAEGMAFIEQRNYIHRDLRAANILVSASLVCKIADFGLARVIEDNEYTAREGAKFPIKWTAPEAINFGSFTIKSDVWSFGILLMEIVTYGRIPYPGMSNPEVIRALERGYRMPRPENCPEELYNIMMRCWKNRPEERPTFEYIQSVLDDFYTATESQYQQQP
Chain of FGFR3 (P22607 whole entry, looked up): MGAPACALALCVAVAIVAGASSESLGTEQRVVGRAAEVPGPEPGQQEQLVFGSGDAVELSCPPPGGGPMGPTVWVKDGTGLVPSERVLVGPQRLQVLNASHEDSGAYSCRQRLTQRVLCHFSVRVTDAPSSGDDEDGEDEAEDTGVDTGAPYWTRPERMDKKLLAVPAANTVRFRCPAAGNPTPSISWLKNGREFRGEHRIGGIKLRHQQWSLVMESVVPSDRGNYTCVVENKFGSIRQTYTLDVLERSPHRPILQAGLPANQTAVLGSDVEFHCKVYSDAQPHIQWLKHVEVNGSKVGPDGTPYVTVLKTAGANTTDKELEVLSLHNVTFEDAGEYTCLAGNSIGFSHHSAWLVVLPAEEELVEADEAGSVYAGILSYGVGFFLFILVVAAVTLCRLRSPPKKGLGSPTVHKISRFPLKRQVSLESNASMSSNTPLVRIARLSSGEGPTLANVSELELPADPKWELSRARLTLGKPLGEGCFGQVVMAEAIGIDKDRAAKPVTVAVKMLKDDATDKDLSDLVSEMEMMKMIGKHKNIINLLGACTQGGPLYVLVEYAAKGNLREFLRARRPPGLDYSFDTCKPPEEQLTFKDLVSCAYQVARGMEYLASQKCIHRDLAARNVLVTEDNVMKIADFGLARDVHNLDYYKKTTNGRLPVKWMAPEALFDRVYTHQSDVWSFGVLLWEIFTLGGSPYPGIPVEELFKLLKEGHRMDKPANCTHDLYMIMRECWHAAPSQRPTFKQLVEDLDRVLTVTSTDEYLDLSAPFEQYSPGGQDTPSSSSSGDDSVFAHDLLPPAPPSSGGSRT
Chain of EPHB1 (P54762 whole entry, looked up): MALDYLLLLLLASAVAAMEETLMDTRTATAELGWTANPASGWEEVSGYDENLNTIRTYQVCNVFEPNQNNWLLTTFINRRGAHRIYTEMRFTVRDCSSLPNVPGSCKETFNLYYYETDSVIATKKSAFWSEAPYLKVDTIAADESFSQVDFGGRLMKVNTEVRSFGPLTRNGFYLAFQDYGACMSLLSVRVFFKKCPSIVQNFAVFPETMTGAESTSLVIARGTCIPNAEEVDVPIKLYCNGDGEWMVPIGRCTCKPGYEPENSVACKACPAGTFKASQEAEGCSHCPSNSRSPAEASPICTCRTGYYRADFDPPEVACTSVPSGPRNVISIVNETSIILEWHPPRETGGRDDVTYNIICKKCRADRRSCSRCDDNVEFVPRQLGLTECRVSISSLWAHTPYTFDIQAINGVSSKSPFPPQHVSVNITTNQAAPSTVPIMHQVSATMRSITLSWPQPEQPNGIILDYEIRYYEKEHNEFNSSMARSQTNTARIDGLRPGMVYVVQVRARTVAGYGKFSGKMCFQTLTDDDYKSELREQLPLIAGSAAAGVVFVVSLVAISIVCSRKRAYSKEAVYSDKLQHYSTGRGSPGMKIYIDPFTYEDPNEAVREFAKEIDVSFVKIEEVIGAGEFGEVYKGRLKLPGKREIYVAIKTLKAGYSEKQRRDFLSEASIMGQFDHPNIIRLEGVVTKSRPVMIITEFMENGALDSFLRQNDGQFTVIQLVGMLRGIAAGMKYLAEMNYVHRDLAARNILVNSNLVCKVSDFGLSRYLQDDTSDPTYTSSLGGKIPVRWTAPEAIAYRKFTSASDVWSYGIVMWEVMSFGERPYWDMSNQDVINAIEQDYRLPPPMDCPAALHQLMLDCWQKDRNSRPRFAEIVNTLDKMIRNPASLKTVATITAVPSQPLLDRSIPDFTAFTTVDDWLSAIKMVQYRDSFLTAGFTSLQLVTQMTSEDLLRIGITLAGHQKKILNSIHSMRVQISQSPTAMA
Chain of MERTK (Q12866 whole entry, looked up): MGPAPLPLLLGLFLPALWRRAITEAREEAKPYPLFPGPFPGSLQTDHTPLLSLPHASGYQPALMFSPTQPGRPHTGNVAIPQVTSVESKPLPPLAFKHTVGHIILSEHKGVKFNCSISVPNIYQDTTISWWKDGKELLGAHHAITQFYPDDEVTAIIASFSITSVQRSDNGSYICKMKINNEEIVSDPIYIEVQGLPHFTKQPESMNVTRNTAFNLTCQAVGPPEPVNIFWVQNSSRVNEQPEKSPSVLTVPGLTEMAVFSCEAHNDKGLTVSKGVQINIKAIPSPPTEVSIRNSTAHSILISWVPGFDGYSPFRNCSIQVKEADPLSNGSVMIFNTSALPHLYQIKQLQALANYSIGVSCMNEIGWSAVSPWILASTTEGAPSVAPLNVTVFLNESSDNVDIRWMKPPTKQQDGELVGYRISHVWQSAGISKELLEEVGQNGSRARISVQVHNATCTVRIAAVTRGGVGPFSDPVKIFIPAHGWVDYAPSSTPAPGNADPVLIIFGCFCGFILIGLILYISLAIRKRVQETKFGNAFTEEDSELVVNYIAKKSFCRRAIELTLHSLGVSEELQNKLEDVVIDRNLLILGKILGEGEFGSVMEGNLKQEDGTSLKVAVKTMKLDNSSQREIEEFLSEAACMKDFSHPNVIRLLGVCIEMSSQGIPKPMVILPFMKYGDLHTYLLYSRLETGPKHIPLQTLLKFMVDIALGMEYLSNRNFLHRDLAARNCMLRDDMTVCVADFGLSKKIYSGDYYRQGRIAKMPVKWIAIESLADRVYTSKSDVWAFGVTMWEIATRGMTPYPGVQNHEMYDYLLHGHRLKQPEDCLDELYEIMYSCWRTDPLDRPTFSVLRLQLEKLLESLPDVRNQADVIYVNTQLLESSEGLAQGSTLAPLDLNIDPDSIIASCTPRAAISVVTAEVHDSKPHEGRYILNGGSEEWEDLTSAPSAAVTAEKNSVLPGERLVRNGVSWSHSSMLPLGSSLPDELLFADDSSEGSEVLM
Chain of Fes (P07332 whole entry, looked up): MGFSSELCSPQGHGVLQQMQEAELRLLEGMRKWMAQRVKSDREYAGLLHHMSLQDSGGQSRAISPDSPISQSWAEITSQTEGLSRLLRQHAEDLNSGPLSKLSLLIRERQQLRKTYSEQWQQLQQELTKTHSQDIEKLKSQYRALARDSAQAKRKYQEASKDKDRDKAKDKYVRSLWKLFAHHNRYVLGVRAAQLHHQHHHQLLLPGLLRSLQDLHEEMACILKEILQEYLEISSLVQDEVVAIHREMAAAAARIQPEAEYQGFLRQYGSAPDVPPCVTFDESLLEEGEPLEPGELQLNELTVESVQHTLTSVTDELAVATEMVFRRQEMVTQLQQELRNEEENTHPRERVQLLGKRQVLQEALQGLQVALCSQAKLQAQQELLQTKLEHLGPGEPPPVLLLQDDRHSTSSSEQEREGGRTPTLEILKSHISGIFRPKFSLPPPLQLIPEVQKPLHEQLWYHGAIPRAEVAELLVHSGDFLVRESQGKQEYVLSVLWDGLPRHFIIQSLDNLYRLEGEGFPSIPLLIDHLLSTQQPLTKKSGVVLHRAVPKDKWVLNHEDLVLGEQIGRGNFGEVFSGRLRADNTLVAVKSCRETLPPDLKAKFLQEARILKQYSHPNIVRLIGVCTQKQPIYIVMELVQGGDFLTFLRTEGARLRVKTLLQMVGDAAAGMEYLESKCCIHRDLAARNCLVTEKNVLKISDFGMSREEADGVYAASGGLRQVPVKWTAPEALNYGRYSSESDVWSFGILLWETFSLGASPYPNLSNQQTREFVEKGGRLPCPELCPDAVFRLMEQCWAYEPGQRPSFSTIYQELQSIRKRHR

Sequence | SH2 binding enrichment (c-Src SH2) | SH2 binding enrichment (SHP2-C SH2) | SH2 binding enrichment (Grb2 SH2) | phosphorylation enrichment (Fes) | phosphorylation enrichment (Jak2) | phosphorylation enrichment (AncSZ) | phosphorylation enrichment (FGFR3) | phosphorylation enrichment (EPHB1) | phosphorylation enrichment (Fer (mouse)) | phosphorylation enrichment (MERTK) | phosphorylation enrichment (EPHB2) | phosphorylation enrichment (c-Abl (mouse)) | phosphorylation enrichment (Hck) | phosphorylation enrichment (Fyn) | phosphorylation enrichment (c-Src) | phosphorylation enrichment (FGFR1)
PAVGIYNGNIN [CDCP1_Y707_D709G] | 0.44 | 0.708 | 0.696 | 1.15 | 1.15 | 0.67 | 0.884 | 0.605 | 0.588 | 0.574 | 0.652 | 1.08 | 1.55 | 1.49 | 1.64 | 0.396
FEPWVYSLSFE [PRKDC_Y647_F649L_YF] | 0.471 | 0.742 | 0.88 | 1.45 | 1.34 | 1.27 | 0.839 | 0.607 | 1.41 | 1.35 | 1.26 | 0.672 | 4.58 | 7.08 | 6.52 | 0.598
DPLASYLDKVR [KRT10_Y160_R156P] | 0.545 | 0.767 | 0.864 | 0.744 | 0.521 | 0.751 | 0.534 | 0.413 | 0.455 | 0.441 | 0.608 | 0.392 | 0.477 | 0.468 | 0.44 | 0.48
PAIFTYDEFKK [COL8A2_Y648_T645I_YF] | 0.509 | 0.888 | 0.829 | 1.11 | 1.12 | 1.47 | 0.501 | 0.398 | 0.304 | 0.594 | 0.359 | 1.03 | 1.66 | 0.952 | 3 | 0.374
RRAKGYPINLY [ITGB2_Y125_D128N] | 0.484 | 0.55 | 0.764 | 0.932 | 0.693 | 0.762 | 0.605 | 0.707 | 0.656 | 0.623 | 0.853 | 0.535 | 0.912 | 0.963 | 0.7 | 0.814
QRRLVYFERGA [RYR1_Y245_G248R_YF] | 0.65 | 0.578 | 0.942 | 0.827 | 0.811 | 0.847 | 0.742 | 0.665 | 0.586 | 0.484 | 0.79 | 0.805 | 0.507 | 0.584 | 0.569 | 0.918
IFLENYNAGTF [CFI_Y421_H418L_YF] | 0.527 | 0.786 | 0.761 | 0.938 | 0.844 | 0.896 | 0.724 | 0.468 | 0.423 | 0.428 | 0.578 | 0.542 | 0.427 | 0.55 | 0.491 | 0.489
QDGFSYLSRQM [LDLR_Y847_P848L_YF] | 0.406 | 0.557 | 0.983 | 1.07 | 0.844 | 0.985 | 0.995 | 0.584 | 0.636 | 0.413 | 0.797 | 0.563 | 0.748 | 0.772 | 0.461 | 0.872
MDDPRYGVCPL [ZNF100_Y6_M8V] | 0.613 | 0.616 | 0.767 | 1.27 | 1.46 | 1.15 | 0.75 | 0.673 | 0.56 | 0.579 | 0.632 | 0.918 | 0.715 | 0.609 | 0.527 | 0.491
MEKEKYVSFIS [JMJD1C_Y596_YF] | 0.785 | 0.831 | 0.711 | 0.832 | 0.518 | 0.833 | 0.55 | 0.416 | 0.35 | 0.454 | 0.417 | 0.541 | 0.497 | 0.348 | 0.486 | 0.434
EFISEFCGEII [EZH2_Y641_Y641F] | 0.743 | 0.895 | 1.24 | 1.42 | 1.44 | 1.52 | 0.885 | 0.566 | 0.591 | 0.638 | 0.719 | 1.22 | 0.518 | 0.507 | 0.618 | 0.574
VEKEKYVSYIS [JMJD1C_Y596_M591V] | 0.507 | 0.748 | 0.978 | 0.826 | 0.866 | 0.76 | 0.567 | 0.487 | 0.466 | 0.444 | 0.489 | 0.698 | 0.434 | 0.464 | 0.5 | 0.453
TISPFYCQSLF [CRYAA_Y48_R49C_YF] | 0.632 | 0.707 | 0.912 | 1.2 | 0.992 | 1.05 | 0.723 | 0.682 | 0.837 | 1.8 | 0.579 | 0.768 | 0.643 | 0.571 | 0.516 | 0.535
RQNQEYEILMD [KRT39_Y379_L383M] | 0.835 | 0.556 | 0.843 | 1.45 | 1.66 | 1.53 | 0.847 | 1.79 | 0.705 | 0.503 | 1.58 | 0.994 | 0.695 | 0.815 | 0.861 | 0.698
IVAREYFSKAD [CAMK2B_Y107_E110K_YF] | 0.473 | 0.604 | 0.787 | 0.693 | 0.542 | 0.627 | 0.402 | 0.421 | 0.368 | 0.358 | 0.437 | 0.448 | 0.427 | 0.469 | 0.342 | 0.434
NKHTTYTMEHI [ACTN1_Y708_N707T] | 0.565 | 0.787 | 0.865 | 0.575 | 0.447 | 0.527 | 0.445 | 0.394 | 0.397 | 0.434 | 0.4 | 0.514 | 0.451 | 0.419 | 0.45 | 0.395
FNSLLYQVPTS [CALCOCO2_Y358_P357L] | 0.538 | 0.91 | 0.818 | 1.06 | 2.1 | 2.77 | 1.32 | 12 | 15 | 12.5 | 18.8 | 17.8 | 6.55 | 2.58 | 3.65 | 1.17
PFSEPYADFGG [APBA1_Y187_YF] | 0.868 | 0.659 | 0.862 | 1.29 | 0.991 | 1 | 0.957 | 0.543 | 0.719 | 0.76 | 0.488 | 1.38 | 0.786 | 1.15 | 3.39 | 1
RKMSSYAFFVQ [HMGB1_Y16_G11R] | 1.42 | 1.24 | 1.55 | 1.58 | 0.755 | 1.01 | 0.737 | 0.436 | 0.899 | 1.19 | 0.352 | 0.667 | 0.466 | 0.822 | 0.542 | 0.644
FSKTQYNQVPR [CXADR_Y318_S323R_YF] | 0.64 | 0.899 | 1.16 | 0.502 | 0.491 | 0.482 | 0.447 | 0.409 | 0.367 | 0.428 | 0.361 | 0.6 | 0.457 | 0.437 | 0.484 | 0.312
QYNPEYVQQAS [LRRC7_Y1058_H1054Y] | 0.431 | 1.47 | 1.06 | 1.28 | 0.995 | 1.16 | 1.05 | 0.687 | 0.939 | 0.635 | 0.802 | 1 | 0.831 | 0.707 | 0.508 | 0.854
DGTIVYTGLET [USH2A_Y4487] | 0.844 | 2.8 | 0.829 | 1.01 | 0.901 | 0.821 | 0.636 | 0.525 | 0.468 | 0.465 | 0.528 | 0.764 | 0.773 | 0.706 | 1.05 | 0.755
LLVVLYKFRCF [PSEN1_Y154_Y159F_YF] | 1.85 | 1.92 | 1.98 | 1.97 | 1.85 | 1.39 | 1.56 | 0.685 | 0.718 | 1.03 | 0.773 | 1.77 | 0.622 | 0.51 | 0.937 | 0.568
TEQDPYNNIDR [MMUT_Y364_V368D] | 2.23 | 0.731 | 0.798 | 1.06 | 0.791 | 1.08 | 0.641 | 0.638 | 0.486 | 0.475 | 0.565 | 0.658 | 0.501 | 0.505 | 0.486 | 0.728
DIPIRYSITGV [CDH4_Y205] | 0.53 | 0.972 | 0.774 | 0.827 | 0.85 | 0.822 | 0.478 | 0.391 | 0.402 | 0.405 | 0.474 | 0.641 | 0.45 | 0.447 | 0.367 | 0.444
FATAGYGSLEA [EPHA10_Y959_A956T] | 0.564 | 0.933 | 0.901 | 0.94 | 0.691 | 0.833 | 0.663 | 0.368 | 0.37 | 0.425 | 0.45 | 0.569 | 0.437 | 0.441 | 0.637 | 0.52
PLDGEYFSLQI [TP53_Y327_T329S] | 0.387 | 0.836 | 0.762 | 2.23 | 5.35 | 3.12 | 4.26 | 1.15 | 0.749 | 0.737 | 1.24 | 2.77 | 1.76 | 3.53 | 5.24 | 6.64
QDRTYYERVRT [SPEN_Y633_S635R] | 2.47 | 2.04 | 0.792 | 0.728 | 0.556 | 0.947 | 0.697 | 0.732 | 2.62 | 0.629 | 0.767 | 0.639 | 5.76 | 1.35 | 1.79 | 0.749
